Test results: patent US20240209086A1 (PETMEDIX, published 2024)

B1: PMX200 (monospecific anti-canine CD3, canine IgG-B effector function deficient Fc) (antibody, V domains shown)
VH: ELTLQESGPGLVKPSQTLSLTCIVSGGSVTSSYYWNWIRQSPGRGLEWMGYWTGNTNYNPALQGRIFITADTAKNQFSLQLRSMTTEDTAVYYCARGGYGYHYGMDYWGHGTSVFVSS
VL: SYVLTQLPSKSVALKQPAHITCGGDNIGSKRVHWYQQKLGQAPALIISFDNSRPTGIPERFSGANSGNTATLTISGALAEDEADYYCQVWDSTAKASIFGGGTHLTVL
B2: PMX186 (monospecific anti-canine CD3, canine IgG-B effector function deficient Fc) (antibody)
heavy: EVKLVESGGDLVKPGGSLRLSCVASGVTFSRYYMSWVRQAPGKGLQWVAYINSGGSTTSYADAVKGRFTISRDNAKNTLYLQMNSLRAEDTAVYYCASEGVGEIYGYKDFGMDYWGHGTSLFVSSASTTAPSVFPLAPSCGSTSGSTVALACLVSGYFPEPVTVSWNSGSLTSGVHTFPSVLQSSGLYSLSSMVTVPSSRWPSETFTCNVAHPASKTKVDKPVPKRENGRVPRPPDCPKCPAPESLGGPSVFIFPPKPKDTLLIARTPEVTCVVVDLGREDPEVQISWFVDGKQMQTAKTQPREEQFNGTYRVVSVLPIGHQDWLKGKQFTCKVNHIGLPSPIERTISKARGQAHQPSVYVLPPSREELSKNTVSLTCLIKDFFPPDIDVEWQSNGQQEPESKYRTTPPQLDEDGSYFLYSKLSVDKSRWQRGDTFICAVMHEALHNHYTQKSLSHSPGK
VL: SYVLTQLPSKNVTLKQPAHITCGGDNIGSKSVHWYQQKLGQAPVLIIYYDSRRPTGIPERFSGANSGNTATLTISGALAEDEADYYCQVWDSSAKAWVFGEGTQLTVL
B3: PMX190 (monospecific anti-canine CD3, canine IgG-B effector function deficient Fc) (antibody)
heavy: EVQLVESGGDLVKPGGSLRLSCVASGFTFSSYQMSWVRQAPGKGLQWVAYISSGGGRTTYADAVRGRLTISRDNAKNTLYLQMNSLRAEDAAVYYCAREGGGEIYGYKDYGMDYWGHGTSLFVSSASTTAPSVFPLAPSCGSTSGSTVALACLVSGYFPEPVTVSWNSGSLTSGVHTFPSVLQSSGLYSLSSMVTVPSSRWPSETFTCNVAHPASKTKVDKPVPKRENGRVPRPPDCPKCPAPESLGGPSVFIFPPKPKDTLLIARTPEVTCVVVDLGREDPEVQISWFVDGKQMQTAKTQPREEQFNGTYRVVSVLPIGHQDWLKGKQFTCKVNHIGLPSPIERTISKARGQAHQPSVYVLPPSREELSKNTVSLTCLIKDFFPPDIDVEWQSNGQQEPESKYRTTPPQLDEDGSYFLYSKLSVDKSRWQRGDTFICAVMHEALHNHYTQKSLSHSPGK
VL: SYVLTQLPSKNVTLKQPAHITCGGDNIGSKSVHWYQQKLGQAPVLIIYYDSSRPTGIPERFSGANSGNTATLTISGALAEDEADYYCQVWDSSAKAWVFGEGTQLTVL
B4: PMX191 (monospecific anti-canine CD3, canine IgG-B effector function deficient Fc) (antibody, V domains shown)
VH: EVQLVESGGDLVKPAGSLRLSCVASGFTFSDYSMSWVRQGPEKGLQLVAGMNSDGSTTYYTDAVRGRFTISRDNAKNTMYLQMNSLRDEDTAIYYCAKGAAAPDYWGQGTLVTVSS
VL: SYELTQPPSVNVTLRETAHITCGGDRIGSKYVQWIQQIPGQAPVVIIYKDNNRPTGIPERFSGANSGNTATLTISGALAEDEADYYCQVGDNYTWVFGEGTQLTVL
B5: PMX192 (monospecific anti-canine CD3, canine IgG-B effector function deficient Fc) (antibody, V domains shown)
VH: EVQLVESGGDLVKPAGSLRLSCVASGFTFSDYSMSWVRQAPEKGLQLVAGINGDGSTTYYTDAVKGRFTISRDNAKNTVYLQMNSLRAEDTAMYYCAKGAGTGDFWGQGTLVTVSS
VL: SYELTQPPSVNVTLRETAHITCGGASIGRKYVQWIQQIPGQAPVVIIYKDSNRPTGIPERFSGANSGNTATLTISGALAEDEADYYCQVGDSGAWVFGEGTQLTVL
B6: PMX227 (monospecific anti-canine CD20, canine IgG-B, lambda C5) (antibody, V domains shown)
VH: EMQLVESGGALVKPGGSLRLSCVASGFTFRRYHMSWVRQAPGQGLQWVAYIDSDGSPTSYGDSVKGRFTISRDNAKNTLFLQMNSLRVDDTAVYYCTTLDYWGRGTLVTVSS
VL: SYVLTQVPSKNVTLKQPAHITCGGDNIGGKSVHWYQQKLGQAPLLIIYYDTRRPTGIPERFSGANSGNTATLTISRALAEDEADYYCQVWDSSGNVFGGGTHLTVIG
B7: PMX229 (monospecific anti-canine CD20, canine IgG-B, lambda C5) (antibody, V domains shown)
VH: EVQLVESGGDLVKPGGSLRLSCVASGITFSRYHMSWVRQAPGKGLQWVAFINTGRSSTNYADAVAGRFTISRDNAKNTLYLQMNGLTVEDTAVYYCSTLDYWGQGTLVTVSS
VL: SYVLTQLPSKSVTLKQPAHITCGGDNIGSKSVHWYQQKLGQAPILIIYYDNNRPTGIPERFSGANSGNTATLTISGALAEDEADYYCHVWDSSVNVFGGGTHLTVLG
B8: PMX228 (monospecific anti-canine CD20, canine IgG-B, lambda C5) (antibody, V domains shown)
VH: EVQLVQSGGDLVKPGGSLRLSCVASGYTFTRYHMSWVRQAPGKGLQWVAFINSDGTGITYGDAVKGRFTISRDNAKNTLYLQMNSLRAEDTAIYYCTTFDSWGQGTLVTVSS
VL: SYVLTQLPSKNVTLKQPAHITCGGDNIGSKSVHWYQQKLGQAPILIIYYDSRRPTGIPERFSGANSGNTATLTISGALAEDEADYYCQVWDSSGNVFGGGTHLTVLG
B9: PMX230 (monospecific anti-canine CD20, canine IgG-B, lambda C5) (antibody, V domains shown)
VH: EVHLVESGGDLVKPGGSLRLSCVASGITFNRYYMNWVRQTPGKGLQWVAYIDSGGSPTTYADAVKGRFTISRDNAKNTLYLQMNSLRAEDTAVYYCTSFDYWGQGTLVTVSS
VL: SYVLTQLPSKNVTLKQPAHITCGGDNIGSKSVHWYQQKLGQAPILIIYYDTSRPTGIPERFSGANSGNTATLTISGALAEDEADYYCQVWDSSANVFGGGTHLTVLG
B10: PMX231 (monospecific anti-canine CD20, canine IgG-B, lambda C5) (antibody, V domains shown)
VH: EVQLVESGGDLVKPGGSLRLSCVASGLTFSRYHMSWIRQAPGKGLQWVAYISSGGSSTNYAGSVKGRFTVSRDNAKNTLYLQMNSLRAEDTAVYYCTSLDYWGQGTLVTVSS
VL: SYVLTQLPSKNVTLKQPAHITCGGDNIGSKSVHWYQQKLGQAPVLIIYYDSRRPTGIPERFSGANSGNTATLTISGALAEDEADYYCQVWDSSDNVFGGGTHLTVLG
B11: PMX234 (monospecific anti-canine CD20, canine IgG-B, lambda C5) (antibody, V domains shown)
VH: ELQLVESGGDLVKPGGSLRLSCVASGFTFSRYYLNWVRQAPGKGLQWVAFITSGGSSTNYADAVKGRFTISRDNAKNTLYLQMNSLRAEDTAVYYCTSFDSWGQGTLVTVSS
VL: SYVLTQLPSKNVTLKQPAHITCGGDNIGSKSVHWYQQKLGQAPVLIIYYDSSRPTGIPERFSGANSGNTATLTISGALAEDEADYYCQVWDSSANVFGGGTHLTVLG
B12: PMX265 (monospecific anti-canine CD20, canine IgG-B, lambda C5) (antibody, V domains shown)
VH: EVQLVQSGGDLVKPGGSLRLSCVASGYTFSRYHMSWVRQAPGKGLQWVAFINSDGTGITYGDAVKGRFTISRDNAKNTLYLQMNSLRAEDTAIYYCTTFDSWGQGTLVTVSS
VL: SYVLTQLPSKNVTLKQPAHITCGGDNIGSKSVHWYQQKLGQAPILIIYYDSRRPTGIPERFSGANSGNTATLTISGALAEDEADYYCQVWDSSGNVFGGGTHLTVLG
B13: PMX236 (antibody, V domains shown)
VH: EVQLVESGGDLVKPGGSLRLSCVASGLTFSRYYMNWVRQAPGKGLQWVAYIDSGGSPTNYADAVKGRFTISRDNAKNTLYLQMNSLRAEDTAVYYCSSFDYWGQGTLVTVSS
VL: SYVVTQLPSNTVTLKQPAHITCGGDNIGSKSVHWYQQKLGQAPVLIIYYDSRRPTGIPERFSGANSGNTATLTISGALAEDEADYYCQVWDSSANVFGGGTHLTVLG
notes: also called PMX236 (monospecific anti-canine CD20, canine IgG-B, lambda C5)

How the values were obtained:
[1] = biological target: canine CD3 on canine T cells (canine PBMC) (canine, UniProt P27597 22-202); assay: cell-based or functional assay
[2] = biological target: T1, canine CD20 on cells (HEK293, MDCK II, CLBL-1 or native B cells) (canine, UniProt Q3C2E2 1-297); assay: flow cytometry, canine CD20 HEK293 cells, 10 µg/ml, FITC anti-canine IgG
T1 construct: also called dCD20; cCD20
T1 chain: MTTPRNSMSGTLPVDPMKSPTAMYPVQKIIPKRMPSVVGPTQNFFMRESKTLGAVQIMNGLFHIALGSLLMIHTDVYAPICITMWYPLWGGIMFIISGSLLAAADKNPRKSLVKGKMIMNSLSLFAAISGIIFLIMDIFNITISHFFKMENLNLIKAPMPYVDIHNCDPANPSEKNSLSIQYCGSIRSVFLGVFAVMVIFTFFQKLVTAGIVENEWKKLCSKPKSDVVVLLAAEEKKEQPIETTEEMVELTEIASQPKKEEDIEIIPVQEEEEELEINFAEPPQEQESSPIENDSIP
Procedure: A CD20 binding screen was performed on candidate proteins produced from the canine CD20 immunisation as described in Examples 2 and 3. CHO cells supernatants containing candidate antibodies were diluted to 10 μg/ml in FACS buffer (PBS containing 3% FBS) and screened for their ability to bind canine CD20 expressed on cell surface. In brief, 1-2×10⁵ canine CD20-expressing HEK cells were incubated with candidate mAbs for one hour at 4° C., at a fixed concentration of 10 μg/ml followed by incubation with 5 μg/ml of FITC-conjugated anti-canine IgG secondary antibody (Bethyl Laboratories) for 1 hour at 4° C. Cells incubated with anti-canine IgG FITC secondary antibody and without primary anti-canine CD20 antibody, or with isotype control primary antibody, were used as negative controls. The data were acquired on either a Beckman Coulter CytoFLEX or a BD Accuri C6 Plus flow cytometer and analysed using FlowJo software.

canine CD3 on canine T cells (canine PBMC), sequence (P27597 22-202 limits assumed, chain 1 of 3): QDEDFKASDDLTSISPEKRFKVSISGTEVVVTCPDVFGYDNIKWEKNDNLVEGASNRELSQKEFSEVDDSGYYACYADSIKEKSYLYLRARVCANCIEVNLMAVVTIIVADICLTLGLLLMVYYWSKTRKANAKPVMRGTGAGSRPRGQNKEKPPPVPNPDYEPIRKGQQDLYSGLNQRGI
canine CD3 on canine T cells (canine PBMC), sequence (chain, as listed by the source limits assumed, chain 2 of 3): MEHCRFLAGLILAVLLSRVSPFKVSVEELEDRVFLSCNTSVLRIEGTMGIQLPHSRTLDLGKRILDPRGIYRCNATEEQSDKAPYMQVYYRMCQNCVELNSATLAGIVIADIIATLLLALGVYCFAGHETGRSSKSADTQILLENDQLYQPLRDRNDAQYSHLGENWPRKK
canine CD3 on canine T cells (canine PBMC), sequence (chain, as listed by the source limits assumed, chain 3 of 3): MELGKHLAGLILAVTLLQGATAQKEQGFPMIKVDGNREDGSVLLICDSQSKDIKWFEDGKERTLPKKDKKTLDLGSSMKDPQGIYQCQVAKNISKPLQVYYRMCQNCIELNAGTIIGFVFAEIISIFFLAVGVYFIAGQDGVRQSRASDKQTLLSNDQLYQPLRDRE

| Binder | CD25 Activation, Day 6, IS [1] | CD25 Activation, Day 6, PB [1] | CD25 Activation, Day 9, IS [1] | CD25 Activation, Day 9, PB [1] | IFNy Concentration pg/ml, Day 6, IS [1] | IFNy Concentration pg/ml, Day 9, IS [1] | IFNy Concentration pg/ml, Day 9, PB [1] | Ki67 Proliferation, Day 6, IS [1] | Ki67 Proliferation, Day 6, PB [1] | Ki67 Proliferation, Day 9, IS [1] | Ki67 Proliferation, Day 9, PB [1] | binding result [2] |
| --- | --- | --- | --- | --- | --- | --- | --- | --- | --- | --- | --- | --- |
| B1 | 8.83 | 19.5 | 13.1 | 15 | 59.6 pg/mL | 363 pg/mL | 822 pg/mL | 0.76 | 2.92 | 1.29 | 0.78 | – |
| B2 | 10.5 | 20 | 10.9 | 17.6 | 27.7 pg/mL | 217 pg/mL | 1220 pg/mL | 2.63 | 0.2 | 1.09 | 0.74 | – |
| B3 | 11.3 | 14.8 | 13.5 | 11.8 | 54.4 pg/mL | 384 pg/mL | 699 pg/mL | 0.73 | 0.98 | 0.9 | 2.73 | – |
| B4 | 8.97 | 10.5 | 14.2 | 14.9 | 31.9 pg/mL | 370 pg/mL | 744 pg/mL | 0.66 | 0.35 | 2.89 | 0.6 | – |
| B5 | 10.4 | 12.7 | 10.3 | 11.3 | 75.9 pg/mL | 210 pg/mL | 758 pg/mL | 1.29 | 0.66 | 3.65 | 1.56 | – |
| B6 | – | – | – | – | – | – | – | – | – | – | – | binds |
| B7 | – | – | – | – | – | – | – | – | – | – | – | binds |
| B8 | – | – | – | – | – | – | – | – | – | – | – | binds |
| B9 | – | – | – | – | – | – | – | – | – | – | – | binds |
| B10 | – | – | – | – | – | – | – | – | – | – | – | binds |
| B11 | – | – | – | – | – | – | – | – | – | – | – | binds |
| B12 | – | – | – | – | – | – | – | – | – | – | – | binds |
| B13 | – | – | – | – | – | – | – | – | – | – | – | binds |
